Where two headings read alike, the source gives them in different places.
Assays:
human C3b [1] = target: T1, human C3b (human, UniProt P01024 23-667; P01024 749-1663); assay: inhibition of properdin binding to C3b (ELISA)
[2] = target: Properdin peptide (71-110) …; assay: ELISA saturation binding
human C3b [3] = target: T1, human C3b; assay: inhibition of properdin binding to C3b (ELISA); remark: listed apart in the source

Chain of Properdin peptide (71-110) … (peptide, as listed by the source): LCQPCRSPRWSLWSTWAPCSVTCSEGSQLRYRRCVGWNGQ

CRSPRWSLWS [Properdin peptide CRSPRWSLWS (75-84)] showed an IC50 (human C3b [1]) of 322 µg/mL.

B1: MoAb^71-110 (antibody, V domains shown)
VH: QVLLQQSAPELARPGASVKMSCTASGYIFTNYPIHWVKQRPGQGLEWIGFIDPGGGYDEPDERFRDRATLTADKSSSTAYMQLSSLTSEDSAIYYCARRGGGYYLDYWGQDTTLTVSA
VL: SIVMTQTPKFLLVSAGDRITITCKASQSVNNDVAWYQQKPGQSPKLLIYYASNRYTGVPDRFTGSGYGTDFTFTITTVKAEDLAVYFCQQDYSSPLTFGAGTKLELK
B1 was tested, and the Kd [2] was 161 nM.

Binder RYRRCVGWNG [Properdin peptide RYRRCVGWNG (99-108)] has an IC50 (human C3b [3]) of 301 µg/mL.
